Data: US20250250357A1 (NANJING ZAIMING PHARMACEUTICAL, published 2025)

Key:
[1] = target: T1, human MSLN-R3-his protein (human, UniProt Q13421 487-598); test: ELISA; antibody 100 nM
T1 construct: also called hMSLN-R3-his; not shown: His tag

[2] = target: T2, human MSLN-R2-his protein (human, UniProt Q13421 391-486); test: ELISA; antibody 0 nM (blank)
T2 construct: also called hMSLN-R2-his; not shown: His tag

[3] = target: T1, human MSLN-R3-his protein; test: ELISA; antibody 0 nM (blank)
[4] = target: T3, human MSLN protein, endogenously expressed on Hela and OVCAR3 cells (human, UniProt Q13421 296-598); test: FACS on OVCAR3 cells; antibody 20 nM
T3 construct: whole, on cells; also called mesothelin
T3 sequence (Q13421 other isoform, or with tags, fused parts or gaps): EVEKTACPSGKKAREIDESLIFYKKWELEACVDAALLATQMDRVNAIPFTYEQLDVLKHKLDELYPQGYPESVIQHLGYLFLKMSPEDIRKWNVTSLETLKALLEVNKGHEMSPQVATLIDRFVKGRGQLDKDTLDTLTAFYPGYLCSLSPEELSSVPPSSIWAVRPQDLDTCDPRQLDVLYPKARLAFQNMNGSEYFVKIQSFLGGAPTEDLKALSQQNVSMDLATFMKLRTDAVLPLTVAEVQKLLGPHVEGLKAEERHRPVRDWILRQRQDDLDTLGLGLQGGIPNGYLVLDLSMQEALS

[5] = target: T4, human MSLN-FL-his protein (human, UniProt Q13421 296-580); test: competitive ELISA; row F1.2.12
T4 construct: made in HEK293E cells, purified on nickel column; also called hMSLN-FL-his; human MSLN full-length protein; not shown: His tag
T4 sequence (Q13421 other isoform, or with tags, fused parts or gaps): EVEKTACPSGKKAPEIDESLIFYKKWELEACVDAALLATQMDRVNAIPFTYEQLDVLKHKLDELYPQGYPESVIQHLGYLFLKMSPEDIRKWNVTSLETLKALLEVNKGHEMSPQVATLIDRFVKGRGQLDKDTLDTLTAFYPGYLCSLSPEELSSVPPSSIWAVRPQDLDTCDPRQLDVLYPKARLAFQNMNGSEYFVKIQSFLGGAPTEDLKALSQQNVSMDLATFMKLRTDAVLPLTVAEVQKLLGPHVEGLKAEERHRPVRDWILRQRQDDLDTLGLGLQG

[6] = target: T4, human MSLN-FL-his protein; test: competitive ELISA; row F2.16.10
Experimental: (§1) In order to identify antigen-binding sites of antibodies, MSLN chimeric antibodies were grouped using competitive ELISA.
(§2) The chimeric antibodies were diluted to 2 μg/mL with PBS and allowed to coat 96-well high-adsorption ELISA plates at 50 μL/well. After the plates were coated at 4° C. overnight, 250 μL of a blocking buffer (PBS containing 2% (w/w) BSA) was added for two hours of blocking at room temperature. 40 μg/mL of the antibodies to be tested were added, and then the human MSLN-FL-His protein with an EC₈₀ concentration corresponding to each of the antibodies to be tested was added for incubation for 2 h. The plates were washed 5 times with PBS, an HRP-labeled anti-His secondary antibody (purchased from Genescript, Cat. No. A00612) was then added for incubation for 1 h, and the plates were washed 5 times again. A TMB substrate was added at 50 μL/well, and after 10 minutes of incubation at room temperature, a stop solution (1.0 M HCl) was added at 50 μL/well. OD₄₅₀ nm values were read using an ELISA plate reader (Insight, purchased from PerkinElmer), and the competition rate between the antibodies was calculated according to the OD₄₅₀ nm values using a formula.

[7] = target: T4, human MSLN-FL-his protein; test: competitive ELISA; row F2.24.10
Experimental: as §1, §2

[8] = target: T4, human MSLN-FL-his protein; test: competitive ELISA; row Tab108 (R3)
Experimental: as §1, §2

[9] = target: T4, human MSLN-FL-his protein; test: competitive ELISA; row Tab142 (R1)
Experimental: as §1, §2

T1 sequence (Q13421 495-606): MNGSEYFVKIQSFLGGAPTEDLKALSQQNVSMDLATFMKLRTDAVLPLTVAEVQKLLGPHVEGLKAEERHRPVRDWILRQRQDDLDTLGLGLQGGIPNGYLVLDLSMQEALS
T2 sequence (Q13421 other isoform, or with tags, fused parts or gaps): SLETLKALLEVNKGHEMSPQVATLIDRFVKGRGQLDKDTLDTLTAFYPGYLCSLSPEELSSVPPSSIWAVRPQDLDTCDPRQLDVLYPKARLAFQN

- OD450 nm [1]: 0.09
- OD450 nm [2]: 0.05
- OD450 nm [3]: 0.05
- FACS fluorescence intensity [4]: 2640
- competition rate [5]: -41%
- competition rate [6]: -104%
- competition rate [7]: -19%
- competition rate [8]: -80%
- competition rate [9]: -6%
B1: Tab107 (YP3, hIgG1) (antibody, V domains shown)
VH: QEQLVESGGGLVQPGASLTLTCTASGIDFSRYYMCWVRQAPGKGLEGIACIYIGGSGSTYYASWAKGRFTISKASSTTVTLQMTSLTAADTATYFCARGTNLNYIFRLWGPGTLVTVSS
VL: DVVMTQTPSPVSAAVGGTVTIKCQASQSINNGLAWYQQKPGQPPRLLIYSASNLESGVPSRFKGSGSGTEFTLTISDLECDDAATYYCQCIWDGNSYVNAFGGGTEVVVRT
notes: Control antibody; VH and VL recombined into human IgG1 CH and CL expression vectors; also called YP3 human IgG1 antibody
